Four molecules from patent publication US20140255303A1 (UNIVERSITE JOSEPH FOURIER GRENOBLE 1, published 2014) can be followed below.

The target in assay [1] is T1, murine recombinant VCAM-1 (murine, UniProt P29533 25-698).
T1 construct: Bought recombinant protein (RnD Systems), immobilised on a CM5 chip for SPR; also called mVCAM-1; murine VCAM-1
T1 sequence (looked up): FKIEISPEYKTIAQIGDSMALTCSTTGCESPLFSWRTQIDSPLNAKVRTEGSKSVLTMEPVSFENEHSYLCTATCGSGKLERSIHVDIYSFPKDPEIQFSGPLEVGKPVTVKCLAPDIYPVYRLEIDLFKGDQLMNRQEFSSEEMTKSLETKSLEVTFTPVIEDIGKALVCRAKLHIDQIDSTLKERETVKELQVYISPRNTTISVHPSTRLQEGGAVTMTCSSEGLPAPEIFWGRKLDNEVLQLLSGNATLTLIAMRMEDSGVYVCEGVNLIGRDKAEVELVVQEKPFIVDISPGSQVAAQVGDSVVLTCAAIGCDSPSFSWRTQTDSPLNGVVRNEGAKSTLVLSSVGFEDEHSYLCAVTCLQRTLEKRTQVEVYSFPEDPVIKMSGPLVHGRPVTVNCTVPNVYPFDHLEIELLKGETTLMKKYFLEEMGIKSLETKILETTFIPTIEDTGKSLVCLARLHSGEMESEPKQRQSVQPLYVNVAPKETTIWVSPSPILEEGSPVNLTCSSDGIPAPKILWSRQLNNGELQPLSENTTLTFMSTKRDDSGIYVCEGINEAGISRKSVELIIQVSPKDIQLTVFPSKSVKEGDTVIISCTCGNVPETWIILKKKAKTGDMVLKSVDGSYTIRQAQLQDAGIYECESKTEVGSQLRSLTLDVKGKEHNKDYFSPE
Kind of assay: SPR, Biacore 3000, recombinant mVCAM-1 immobilised on CM5 chip, 1:1 model. The method, then:
(§1) The affinity of human or murine recombinant VCAM-1 nanobodies was determined by SPR analysis on a Biacore 3000 apparatus. Recombinant mouse ICAM-1 (RnD Systems) was used as a negative control. The recombinant proteins were immobilized on a sensor chip CM5 (Biacore, Uppsala, Sweden) according to the instructions of manufacturer. Serial half-dilutions of the nanodbodies from 50 to 1 nM in PBS with 0.005% Tween-20® were tested. The affinity constants were determined by using adjustment of the standard association model 1:1 (BIAevaluation software package).
(In general: In SPR one partner is held on a chip, and binding of the other changes the refractive index at the surface.)

For a further assay, the target named is T2, human recombinant VCAM-1 (human, UniProt P19320 25-698).
T2 construct: Bought recombinant protein (RnD Systems), immobilised on a CM5 chip for SPR; also called hVCAM-1; human VCAM-1
T2 sequence (looked up): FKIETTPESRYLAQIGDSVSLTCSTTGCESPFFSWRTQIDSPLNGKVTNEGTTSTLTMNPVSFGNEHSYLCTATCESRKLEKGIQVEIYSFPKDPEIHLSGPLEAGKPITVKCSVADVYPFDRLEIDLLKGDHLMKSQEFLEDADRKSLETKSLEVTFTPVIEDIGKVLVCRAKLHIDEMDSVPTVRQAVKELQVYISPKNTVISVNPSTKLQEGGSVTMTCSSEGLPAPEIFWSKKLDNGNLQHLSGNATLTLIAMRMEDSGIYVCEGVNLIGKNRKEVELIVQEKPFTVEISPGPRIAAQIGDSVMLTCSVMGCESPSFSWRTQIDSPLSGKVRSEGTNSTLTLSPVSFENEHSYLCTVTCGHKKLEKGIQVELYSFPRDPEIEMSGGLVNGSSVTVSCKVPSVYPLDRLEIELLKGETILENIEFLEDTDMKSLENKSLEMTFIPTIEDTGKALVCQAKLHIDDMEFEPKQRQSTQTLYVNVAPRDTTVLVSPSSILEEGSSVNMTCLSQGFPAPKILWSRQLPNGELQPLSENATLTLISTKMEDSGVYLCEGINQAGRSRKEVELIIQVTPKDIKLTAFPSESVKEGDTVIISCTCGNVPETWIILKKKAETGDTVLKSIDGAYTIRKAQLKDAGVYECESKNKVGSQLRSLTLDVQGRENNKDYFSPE
The assay can be described thus: SPR, Biacore 3000, recombinant hVCAM-1 immobilised on CM5 chip, 1:1 model. As for the experimental part:
as §1

The target of assay [2] is T3, rabbit VCAM-1 on transfected CHO cells (rabbit, UniProt A0A5F9DFM7 25-739).
T3 construct: whole, on cells
T3 sequence: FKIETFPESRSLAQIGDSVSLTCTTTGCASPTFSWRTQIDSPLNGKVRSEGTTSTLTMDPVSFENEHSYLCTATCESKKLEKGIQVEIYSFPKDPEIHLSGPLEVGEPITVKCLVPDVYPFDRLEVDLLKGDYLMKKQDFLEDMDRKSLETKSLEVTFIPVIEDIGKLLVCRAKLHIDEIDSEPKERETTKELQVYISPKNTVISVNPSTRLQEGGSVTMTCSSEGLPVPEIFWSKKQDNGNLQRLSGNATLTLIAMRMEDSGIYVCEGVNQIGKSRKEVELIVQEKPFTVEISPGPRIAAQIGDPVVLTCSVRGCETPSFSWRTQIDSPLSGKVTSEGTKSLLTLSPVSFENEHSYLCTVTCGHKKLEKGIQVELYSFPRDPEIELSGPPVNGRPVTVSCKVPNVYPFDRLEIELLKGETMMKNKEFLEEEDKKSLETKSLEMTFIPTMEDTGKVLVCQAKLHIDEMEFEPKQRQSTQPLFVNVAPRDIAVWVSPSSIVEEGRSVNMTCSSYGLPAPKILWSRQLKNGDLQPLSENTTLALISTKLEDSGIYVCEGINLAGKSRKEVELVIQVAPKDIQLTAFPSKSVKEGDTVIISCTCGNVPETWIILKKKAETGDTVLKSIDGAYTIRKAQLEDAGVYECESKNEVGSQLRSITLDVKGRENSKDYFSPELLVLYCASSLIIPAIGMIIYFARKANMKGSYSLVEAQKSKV
Kind of assay: flow cytometry (PE-A) on CHO cells transiently transfected with rabbit VCAM-1; nanobody, then anti-His-tag mAb and anti-mouse IgG1 [Continuation), panel 8B]. The method, then: (§2) 10⁵ CHO cells either transiently transfected or not with a plasmid coding for rabbit VCAM-1 were sequentially incubated with 1 μg of nanobodies, 1 μg of anti-His-tag monoclonal antibody (Serotec) and 200 ng of anti-mouse rat IgG₁ (BD Biosciences). The bond was measured on a FACS Canto II analyzer (BD Biosciences, Franklin Lakes, USA) and the data analysed with the FlowJo software package (TreeStar, Ashland, USA). A negative control was made by omitting the nanobody.
(In general: In flow cytometry, cells or beads pass a laser one at a time.)

In assay [3] the target is T3, rabbit VCAM-1 on transfected CHO cells. Kind of assay: flow cytometry (PE-A) on CHO cells transiently transfected with rabbit VCAM-1; nanobody, then anti-His-tag mAb and anti-mouse IgG1 [Continuation), panel 3B]. The method, then: as §2

B1: cAbVCAM1-5 (VHH)
VHH: QVQLQESGGGSVQTGGSLRLSCAASGYTNSIMYMAWFRQAPGKKREGVAAIRFPDDSAYYAGSVKGRFTISHDNAKNTVYLQMNNLNPEDTAMYYCAARSSPYSFAWNDPSNYNYWGQGTQVTVSS
notes: Dromedary nanobody produced with a hexahistidine tag in E. coli; also called anti-VCAM-1 nanobody; not shown: hexahistidine tag
On to B1, for which the Kd (as a rule, the equilibrium constant for the complex coming apart) stood at 2 nM in assay [1] and 6.5 nM in the assay with human recombinant VCAM-1.

B2: cAbVCAM1-8 (VHH)
VHH: QVQLQESGGGLVQPGGSLRLSCAASGFTFSNYYMTWVRRAPGKGLEWVSRINSDGSTLYLPSVKGRFTISRDNAKNTLYLQMNSLKSEDTGWYYCVEGKSSVRGQGTQVTVSS
notes: as for B1
For the molecule B2, in assay [2], the binding result was “no binding (tested: 1 µg per 10^5 cells (single amount))”. The Kd in assay [1] is 13.2 nM; with human recombinant VCAM-1 it was 1.4 nM.

B3: cAbVCAM1-3 (VHH)
VHH: QVQLQESGGGSVQAGGSLRLSCTASGFTYSSYYMSWVRQAPGKGLEWVSGINVDGSNTYYADSVKGRFTISRDNAKNTLYLQMNSLKSEDTALYYCATGSGRDSYDCYSGSWCPKGQGTQVTVSS
notes: as for B1
As for B3, the binding result in assay [3] was “no binding (tested: 1 µg per 10^5 cells (single amount))”. The Kd was determined as 2.4 nM in assay [1] and 9.1 nM in the assay with human recombinant VCAM-1.

B4: cAbVCAM1-9 (VHH)
VHH: QVQLQESGGGLVQPGGSLRLSCAASGFTFSSYYMSWVRQAPGKGLEWVSGINVDGSNTYYADSVKGRFTISRDNAKNTLYLQMNSLKSEDTALYYCATGSGRDSYDCYSGSWCPKGQGTQVTVSS
notes: as for B1
In the case of B4, the Kd in assay [1] amounted to 0.9 nM; with human recombinant VCAM-1, 5.3 nM.
